Measured values as given in patent CN116535503A.

Experiments:
[1] = target: GDF15-HIS(百普赛斯，CAT#:GD5-H5149) (human) (UniProt Q99988); assay: ELISA, GDF15-HIS coated
[2] = target: GDF15-mFC蛋白(GDF15:Genbank登记号NM_004864.3;mFC:Genbank登记号AAH31470.1) (human; mouse) (UniProt Q99988); assay: competition ELISA: blocks GDF15-mFC binding to coated GFRAL-hFc
[3] = target: GDF15-HIS(百普赛斯，CAT#:GD5-H5149) (human) (UniProt Q99988); assay: BLI (ForteBio Octet), antibody captured at 10 μg/ml, GDF15 6.25-200 nM
[4] = target: GDF15-HIS(百普赛斯，CAT#:GD5-H5149) (human) (UniProt Q99988); assay: cell-based or functional assay

GDF15-HIS(百普赛斯，CAT#:GD5-H5149) (human), sequence (Q99988 197-308 limits assumed): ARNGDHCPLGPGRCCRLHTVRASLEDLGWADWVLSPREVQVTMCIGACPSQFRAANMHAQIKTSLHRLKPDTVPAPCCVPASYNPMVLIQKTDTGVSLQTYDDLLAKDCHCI

Ponsegromab(Pfizer;Drug Bank:D11909) (antibody)
EC50 [1]: 0.096 µg/mL | OD450.Max [1]: 1.1 OD450 | IC50 [2]: 0.504 µg/mL | OD450.Max [2]: 1.02 OD450 | Kd [3]: < 1 pM | koff [3]: < 1e-07 s⁻¹ | kon [3]: 711000 M⁻¹ s⁻¹ | Bottom (fold luciferase activity), HEK293 SRE-LUC2-cRET-GFRAL reporter cells [4]: 1.07 | IC50(μg/ml), luciferase in HEK293 SRE-LUC2-cRET-GFRAL reporter cells stimulated with 5 ng/ml GDF15-His [4]: 0.0321 µg/mL
